This test concerns the target CXCR5 (human; form in the assay not stated) (UniProt P32302). Briefly: side-by-side comparison; method not stated.

B1: Mouse anti-hCXCR5 mAb clone 16D7 (antibody, V domains shown)
VH: QVQLKESGPGLVAPSQSLSITCTVSGFSLIDYGVNWIRQPPGKGLEWLGVIWGDGTTYYNSALKSRLSIRKDNSQSQVFLKMNSLQTDDTAMYYCARIVYWGQGTLVTVSA
VL: DIVMTQAAPSVAVTPRESVSISCRSSKSLLHSSGKTYLYWFLQRPGQSPQLLIYRMSNLASGVPDRFSGSGSGTAFTLRISRVEAEDVGVYYCMQHLEYPYTFGGGTKLEIK
B1 had a fold higher affinity than the commercial antibodies of 10 fold and an off rate, times better than the other antibodies of 100 times.

Values taken from patent US20130251714A1.
